Results taken from publication PMC10653815.

Assays:
[1] = biological target: MosV-RBPβ (C-terminal six-bladed β-propeller head domain of the Mossman virus receptor-binding protein, Glu202−Thr632) (Mossman virus); experiment: SEC-SAXS; glycosylated protein, 45 µL at 5 mg/mL on Superdex 200 PC 3.2/30 in TBS, in-line SAXS; curves fitted with monomeric and dimeric crystal models
[2] = biological target: MosV-RBPβ (C-terminal six-bladed β-propeller head domain of the Mossman virus receptor-binding protein, Glu202−Thr632) (Mossman virus); experiment: SEC; Superdex 200 10/30 column, 10 mM Tris pH 8.0, 150 mM NaCl; compared with gel filtration standards; pre- and post-deglycosylation
[3] = biological target: NarV-RBPβ (C-terminal six-bladed β-propeller head domain of the Nariva virus receptor-binding protein, Glu184−Pro657) (Nariva virus); experiment: SEC-SAXS; glycosylated protein, 45 µL at 5 mg/mL on Superdex 200 PC 3.2/30 in TBS, in-line SAXS; curves fitted with monomeric and dimeric crystal models
[4] = biological target: NarV-RBPβ (C-terminal six-bladed β-propeller head domain of the Nariva virus receptor-binding protein, Glu184−Pro657) (Nariva virus); experiment: SEC; Superdex 200 10/30 column, 10 mM Tris pH 8.0, 150 mM NaCl; compared with gel filtration standards; pre- and post-deglycosylation

Substance | stoichiometry N [1] | stoichiometry N [2] | stoichiometry N [3] | stoichiometry N [4]
MosV-RBPβ (C-terminal six-bladed β-propeller head domain of the Mossman virus receptor-binding protein, Glu202−Thr632) (domain or fragment) | 2 | 2 |  | 
NarV-RBPβ (C-terminal six-bladed β-propeller head domain of the Nariva virus receptor-binding protein, Glu184−Pro657) (domain or fragment) |  |  | 2 | 2
